Assay [1] has as its target H3 HK68 mini2a-linker2+cl9_+10+12+GCN4T (influenza A virus H3N2, UniProt Q91MA7 17-566). Description: FACS on HEK293F.
Assay [2] addresses HK68 H3mini2a-linker+cl9_+10+12+17+CG7-GCN4T (influenza A virus H3N2, UniProt Q91MA7 17-566). Description: FACS on HEK293F.
Assay [3] concerns the target HK68 H3mini2a-linker+cl9_+10+12+16+CG7-GCN4T (influenza A virus H3N2, UniProt Q91MA7 17-566). Nature of the assay: FACS on HEK293F.
Assay [4] addresses HK68 H3mini2a-linker+cl9_+10+12+19+GCN4T (influenza A virus H3N2, UniProt P12584 1-550). Description: FACS on HEK293F.
Assay [5] concerns the target mini4 cluster11 (A/Brisbane/59/2007) (influenza A virus H1N1, UniProt A8C8J4 18-565). Description: FACS on HEK293F.
In assay [6] the target is mini3 cluster11 (A/Brisbane/59/2007) (influenza A virus H1N1, UniProt A8C8J4 18-565). Nature of the assay: FACS on HEK293F.
The target of assay [7] is mini4 cluster11+5 (A/Brisbane/59/2007) (influenza A virus H1N1, UniProt A8C8J4 18-565). Description: FACS on HEK293F.
Assay [8] concerns the target mini1 cluster11 (A/Brisbane/59/2007) (influenza A virus H1N1, UniProt A8C8J4 18-565). Description: FACS on HEK293F.
Assay [9] deals with mini2 cluster11 (A/Brisbane/59/2007) (influenza A virus H1N1, UniProt A8C8J4 18-565). Description: FACS on HEK293F.
Assay [10] deals with mini2 cluster11+5 (A/Brisbane/59/2007) (influenza A virus H1N1, UniProt A8C8J4 18-565). Description: FACS on HEK293F.
The target in assay [11] is mini3 cluster11+5 (A/Brisbane/59/2007) (influenza A virus H1N1, UniProt A8C8J4 18-565). Description: FACS on HEK293F.
The target of assay [12] is mini1 cluster11+5 (A/Brisbane/59/2007) (influenza A virus H1N1, UniProt A8C8J4 18-565). Nature of the assay: FACS on HEK293F.
The target in another assay is HK68 H3m2-cl9 (influenza A virus H3N2, UniProt Q91MA7 17-566). Description: FACS on HEK293F [D00014 FIG. 10B].
Assay [13] addresses HK68 H3m2-cl9+10+11+13-GCN4 (influenza A virus H3N2, UniProt Q91MA7 17-566). Nature of the assay: FACS on HEK293F [D00014 FIG. 10B].
Assay [14] concerns the target HK68 H3m2-cl9+10+11+12-GCN4 (influenza A virus H3N2, UniProt Q91MA7 17-566). Description: FACS on HEK293F [D00014 FIG. 10B].
For assay [15], the target named is H3 Full-length A/Hong Kong/1/1968 (influenza A virus H3N2, UniProt Q91MA7 17-566). Nature of the assay: FACS on HEK293F [D00014 FIG. 10B].
Assay [16] deals with HK68 H3m2-cl9+10+11+12-tri (influenza A virus H3N2, UniProt Q91MA7 17-566). Nature of the assay: FACS on HEK293F [D00014 FIG. 10B].
In a further assay the target is HK68 H3m2-cl9+10+11+13 (influenza A virus H3N2, UniProt Q91MA7 17-566). Nature of the assay: FACS on HEK293F [D00014 FIG. 10B].
Another assay addresses HK68 H3m2-cl9+10+12 (influenza A virus H3N2, UniProt Q91MA7 17-566). Description: FACS on HEK293F [D00014 FIG. 10B].
For a further assay, the target named is HK68 H3m2-cl9+10 (influenza A virus H3N2, UniProt Q91MA7 17-566). Description: FACS on HEK293F [D00014 FIG. 10B].
Assay [17] has as its target HK68 H3m2-cl9+10+11+13-tri (influenza A virus H3N2, UniProt Q91MA7 17-566). Description: FACS on HEK293F [D00014 FIG. 10B].
Assay [18] deals with hemagglutinin of influenza virus A/Hong Kong/1/68 (H3) (influenza A virus H3N2, UniProt Q91MA7 17-566). Nature of the assay: cell-based or functional assay.
For assay [19], the target named is hemagglutinin of influenza virus A/Ck/HK/SSP176/09 (H9) (influenza A virus H9). Nature of the assay: cell-based or functional assay.
The target in assay [20] is hemagglutinin of influenza virus A/EW/MPH571/08 (H8) (influenza A virus H8). Nature of the assay: cell-based or functional assay.
The target in assay [21] is hemagglutinin of influenza virus A/Johannesburg/33/94 (H3) (influenza A virus H3). Nature of the assay: cell-based or functional assay.
For assay [22], the target named is hemagglutinin of influenza virus A/EW/MPF461/07 (H5) (influenza A virus H5). Description: cell-based or functional assay.
The target of assay [23] is hemagglutinin of influenza virus A/WF/MPA 892/06 (H4) (influenza A virus H4). Nature of the assay: cell-based or functional assay.
The target of assay [24] is hemagglutinin of influenza virus A/EW/MPD411/07 (H6) (influenza A virus H6). Nature of the assay: cell-based or functional assay.
For assay [25], the target named is hemagglutinin of influenza virus A/Env/MPU3156/05 (H2) (influenza A virus H2). Description: cell-based or functional assay.

B1: CR8057 (antibody, V domains shown)
VH: EVQLVESGGGLVQPGGSLRLSCAASGFTDSVIFMSWVRQAPGKGLECVSIIYIDDSTYYADSVKGRFTISRHNSMGTVFLEMNSLRPDDTAVYYCATESGDFGDQTGPYHYYAMDV
VL: QSALTQPASVSGSPGQSITISCTGSSGDIGGYNAVSWYQHHPGKAPKLMIYEVTSRPSGVSDRFSASRSGDTASLTVSGLQAEDEAHYYCCSFADSNILI
As for B1, the binding result in assay [1], in [2], in assay [3], in assay [4], in assay [5] and in [6] was “no binding (tested: 5 ug/ml)” throughout. For the same molecule, the binding result in [7], in assay [8], in assay [9], in assay [10], in [11] and in assay [12] was “no binding (tested: 5 ug/ml)” in each case. The binding result (with HK68 H3m2-cl9; in assay [13]; in [14]; in assay [15]; in assay [16]; in the assay with HK68 H3m2-cl9+10+11+13) was “no binding (tested: 5 ug/ml)” throughout. Besides, the binding result (in the assay with HK68 H3m2-cl9+10+12; with HK68 H3m2-cl9+10; in assay [17]) was “no binding (tested: 5 ug/ml)” throughout.

B2: CR9114 (antibody, V domains shown)
VH: QVQLVQSGAEVKKPGSSVKVSCKSSGGTSNNYAISWVRQAPGQGLDWMGGISPIFGSTAYAQKFQGRVTISADIFSNTAYMELNSLTSEDTAVYFCARHGNYYYYSGMDVWGQGTTVTVSS
VL: SYVLTQPPAVSGTPGQRVTISCSGSDSNIGRRSVNWYQQFPGTAPKLLIYSNDQRPSVVPDRFSGSKSGTSASLAISGLQSEDEAEYYCAAWDDSLKGAVFGGGTQLTVL
Consider B2, for which the “virus neutralization assay on MDCK cells, geomean IC50” value in assay [18] stood at 19 µg/mL; in assay [19], 6.3 µg/mL; in assay [20] it was 8.8 µg/mL; in assay [21], 21.9 µg/mL; in assay [22], 10.5 µg/mL; in assay [23], 0.8 µg/mL. Also, the “virus neutralization assay on MDCK cells, geomean IC50” value came to 10.5 µg/mL in assay [24] and 8.8 µg/mL in [25].
